{
  "source": "IntAct's records for PubMed 19749176",
  "parents": {"B1": {"name": "Serine/threonine-protein phosphatase PP1-1 (Saccharomyces cerevisiae), P20604 (parent)", "chain": "MVSRGPDEWLETIKKCQALTENEMKQLCEMVKELLMEESNIQPVQTPVTVCGDIHGQFHDLLELFRTAGGFPDDINYIFLGDYVDRGYYSLETFTLLMCLKVKYPAKITLVRGNHESRQITQVYGFYEECLNKYGSTTVWKYCCQVFDFLTLAAIIDGKILCVHGGLSPEIRMLDQIRVLSRAQEVPHEGGFSDLLWSDPDNVEAWQVSPRGAGWLFGSKVAREFNHVNGLNLIARAHQLVMEGFKYHFPEKDVVTVWSAPNYCYRCGNVASVMKVDEDLEPTFKIFSAVPDDYIRESTANHNNQRAGYFL", "partner": "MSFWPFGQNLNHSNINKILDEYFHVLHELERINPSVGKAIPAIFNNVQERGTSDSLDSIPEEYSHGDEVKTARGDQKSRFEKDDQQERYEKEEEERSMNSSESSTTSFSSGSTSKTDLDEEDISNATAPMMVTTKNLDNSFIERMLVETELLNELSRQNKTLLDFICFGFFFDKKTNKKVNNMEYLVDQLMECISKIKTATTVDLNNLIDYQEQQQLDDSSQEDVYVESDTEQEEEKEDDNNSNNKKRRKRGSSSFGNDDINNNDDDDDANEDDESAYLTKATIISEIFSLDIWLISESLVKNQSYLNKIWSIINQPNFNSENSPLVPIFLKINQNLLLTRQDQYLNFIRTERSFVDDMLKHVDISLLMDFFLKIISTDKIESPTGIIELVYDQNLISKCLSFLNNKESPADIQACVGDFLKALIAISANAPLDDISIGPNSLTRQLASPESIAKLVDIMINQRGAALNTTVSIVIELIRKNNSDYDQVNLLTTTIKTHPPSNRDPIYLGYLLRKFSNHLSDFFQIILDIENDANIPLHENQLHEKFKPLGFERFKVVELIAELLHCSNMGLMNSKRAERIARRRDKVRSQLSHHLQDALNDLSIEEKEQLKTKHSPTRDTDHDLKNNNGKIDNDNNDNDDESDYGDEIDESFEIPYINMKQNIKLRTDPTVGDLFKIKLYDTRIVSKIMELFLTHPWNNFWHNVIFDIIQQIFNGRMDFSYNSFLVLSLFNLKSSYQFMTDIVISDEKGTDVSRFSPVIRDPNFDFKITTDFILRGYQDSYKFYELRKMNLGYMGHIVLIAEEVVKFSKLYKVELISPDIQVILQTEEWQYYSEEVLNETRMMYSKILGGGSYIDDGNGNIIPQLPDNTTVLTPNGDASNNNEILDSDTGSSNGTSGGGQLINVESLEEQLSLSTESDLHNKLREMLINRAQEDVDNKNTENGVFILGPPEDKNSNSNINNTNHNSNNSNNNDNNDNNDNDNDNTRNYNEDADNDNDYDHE"}, "B2": {"name": "Serine/threonine-protein phosphatase PP1-1 (Saccharomyces cerevisiae), P20604 (parent)", "chain": "B1 chain", "partner": "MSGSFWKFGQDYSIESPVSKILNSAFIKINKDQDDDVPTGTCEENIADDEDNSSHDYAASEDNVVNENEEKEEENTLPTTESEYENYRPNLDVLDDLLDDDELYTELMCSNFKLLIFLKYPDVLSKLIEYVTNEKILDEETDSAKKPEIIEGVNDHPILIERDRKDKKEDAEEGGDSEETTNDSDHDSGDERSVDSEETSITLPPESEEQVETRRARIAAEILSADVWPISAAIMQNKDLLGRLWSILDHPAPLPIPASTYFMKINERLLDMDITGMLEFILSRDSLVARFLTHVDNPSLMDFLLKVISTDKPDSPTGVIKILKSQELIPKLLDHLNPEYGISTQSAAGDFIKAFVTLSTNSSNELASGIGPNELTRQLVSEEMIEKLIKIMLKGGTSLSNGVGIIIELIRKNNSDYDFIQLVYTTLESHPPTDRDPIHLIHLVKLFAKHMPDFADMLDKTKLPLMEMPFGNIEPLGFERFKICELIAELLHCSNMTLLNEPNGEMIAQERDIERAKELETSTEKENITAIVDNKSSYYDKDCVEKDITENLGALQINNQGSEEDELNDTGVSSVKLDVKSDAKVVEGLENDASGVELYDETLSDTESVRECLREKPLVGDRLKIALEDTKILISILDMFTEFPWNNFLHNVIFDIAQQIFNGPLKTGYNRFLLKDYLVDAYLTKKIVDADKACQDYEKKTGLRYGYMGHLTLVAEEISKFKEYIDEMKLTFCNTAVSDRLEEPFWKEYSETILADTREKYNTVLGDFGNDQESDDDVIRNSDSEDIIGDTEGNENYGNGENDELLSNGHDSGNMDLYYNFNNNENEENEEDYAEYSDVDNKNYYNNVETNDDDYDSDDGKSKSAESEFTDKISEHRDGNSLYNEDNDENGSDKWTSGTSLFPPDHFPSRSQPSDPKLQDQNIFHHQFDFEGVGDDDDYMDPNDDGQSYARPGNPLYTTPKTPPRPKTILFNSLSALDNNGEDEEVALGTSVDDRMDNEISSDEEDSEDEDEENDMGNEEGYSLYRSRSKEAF"}},
  "data": [
    {"variants_of": "B1", "conditions": "with sa155_yeast SAP155, P43612", "values": [
      {"variant": "MVSRGPDEWLETIKKCQALTENEMKQLCEMVKELLMAASNIQPVQTPVTVCGDIHGQFHDLLELFRTAGGFPDDINYIFLGDYVDRGYYSLETFTLLMCLKVKYPAKITLVRGNHESRQITQVYGFYEECLNKYGSTTVWKYCCQVFDFLTLAAIIDGKILCVHGGLSPEIRMLDQIRVLSRAQEVPHEGGFSDLLWSDPDNVEAWQVSPRGAGWLFGSKVAREFNHVNGLNLIARAHQLVMEGFKYHFPEKDVVTVWSAPNYCYRCGNVASVMKVDEDLEPTFKIFSAVPDDYIRESTANHNNQRAGYFL", "note": "[E37A;E38A]", "effect of a mutation on the interaction": "decreasing interaction"}
    ]},
    {"variants_of": "B2", "conditions": "with sa190_yeast SAP190, P36123", "values": [
      {"variant": "MVSRGPDEWLETIKKCQALTENEMKQLCEMVKELLMAASNIQPVQTPVTVCGDIHGQFHDLLELFRTAGGFPDDINYIFLGDYVDRGYYSLETFTLLMCLKVKYPAKITLVRGNHESRQITQVYGFYEECLNKYGSTTVWKYCCQVFDFLTLAAIIDGKILCVHGGLSPEIRMLDQIRVLSRAQEVPHEGGFSDLLWSDPDNVEAWQVSPRGAGWLFGSKVAREFNHVNGLNLIARAHQLVMEGFKYHFPEKDVVTVWSAPNYCYRCGNVASVMKVDEDLEPTFKIFSAVPDDYIRESTANHNNQRAGYFL", "note": "[E37A;E38A]", "effect of a mutation on the interaction": "decreasing interaction"}
    ]}
  ]
}
